Data published in the DeepSol protein solubility set.

Test: soluble on expression in E. coli; label from the status in PepcDB or PDB records

Sequence | soluble on expression in E. coli
MAHHHHHHMLAAIQGFGTRVAARTAGQALRRGLGVVPLRRCCPFRCASSASLPSDVEVHQGSDDYRHSDDAFTLSTEVLGTAEEKATLDEDEFDELEAASQELHDLCYALIAHLRCADPEANKALFERRVQRAFREPKPEQYRRLLHGHGDRSLRRRNNYRTRKDFQEAHRLYLQWCDKLLLLLTQPVLDRLVKSAGKGHRDLRTDGVHRYRRPLERATWRSFPHRWFKHAPFEVQQLRADIPESAVLNTRFYRDHATLRYLFTLMEPQHAFREKIERRVMDLTQRYDPLRKSIE | not soluble
MSLIVLGLEGTAHTISCGIIDESRILAMESSMYRPKTGGIRPLDAAVHHSEVIDTVISRALEKAKISIHDIDLIGFSMGPGLAPSLRVTATAARTISVLTGKPIIGVNHPLGHIEIGRRVTGAIDPVMLYVSGGNTQVIAHVNGRYRVLGETLDIGIGNMIDKFAREAGIPFPGGPEIEKLAMKGTKLLDLPYSVKGMDTAFSGILTAALQYLKTGQAIEDISYSIQETAFAMLVEVLERALYVSGKDEILMAGGVALNRRLRDMVTNMAREAGIRSYLTDREYCMDNGIMIAQAALLMYKSGVRMSVEETAVNPRFRIDEVDAPWITDASRKDYGKAGAESRIEEVSFHGRPAIRKVRISKSYRNSDLDKKIRYERMRNEFTILRKLKEAGVNSPVVYDFDPFSMSITMQKIPGRMMSAELNEGRTDFLNELGIMIAKMHRAGIAHGDLTVNNIIVNDSVFIIDPSMGKVNAEIEDMAVDIYALEDSIKGLGLDSGSVIGQMLKSYRNNFNLADDVLETVSAIRRRHRYVEGHHHHHH | not soluble
MEKVYGLIGFPVEHSLSPLMHNDAFARLGIPARYHLFSVEPGQVGAAIAGVRALGIAGVNVTIPHKLAVIPFLDEVDEHARRIGAVNTIINNDGRLVGYNTDGLGYVQALEEEMNITLDGKRILVIGAGGGARGIYFSLLSTAAERIDMANRTVEKAERLVREGDERRSAYFSLAEAETRLAEYDIIINTTSVGMHPRVEVQPLSLERLRPGVIVSDIIYNPLETKWLKEAKARGARVQNGVGMLVYQGALAFEKWTGQWPDVNRMKQLVIEALRR | soluble
MGSDKIHHHHHHMNNNIPLRALQIFEACARLESCSLAANELCITQSAVSQQIKQLEDYFLEKLFYRQGGKINLTEAGIELRERLAPVFYDLNSVCSSLVQNMAGEVRVHSYTSLAARWLVPKMEQLRQMYPELNINVGMFQNDIEMSDMIADIFIVTRECQDGYTIIPLVTEKLVAFCSPDYLAQSQGISLATLDQHCLLYSKHKDYGVDWDTWFRNNDIAISPNQKKIFFNHNMLAVQAAIYGQGIVLGLEQTLKVELDSGNLVKLDLPTCLSGLTYYIAYKTSKKRDARIMRIVDWIIDNYPGDHPGDRTLAR | not soluble
MLNQKIQNPNPDELMIEVDLCYELDPYELKLDEMIEAEPEPEMIEGLPASDALTPADRYLELFEHVQSAKIFPDSKTFPDCAPKMDPLDILIRYRKVRRHRDFDLRKFVENHFWLPEVYSSEYVSDPQNSLKEHIDQLWPVLTREPQDHIPWSSLLALPQSYIVPGGRFSETYYWDSYFTMLGLAESGREDLLKCMADNFAWMIENYGHIPNGNRTYYLSRSQPPVFALMVELFEEDGVRGARRYLDHLKMEYAFWMDGAESLIPNQAYRHVVRMPDGSLLNRYWDDRDTPRDESWLEDVETAKHSGRPPNEVYRDLRAGAASGWDYSSRWLRDTGRLASIRTTQFIPIDLNAFLFKLESAIANISALKGEKETEALFRQKASARRDAVNRYLWDDENGIYRDYDWRREQLALFSAAAIVPLYVGMANHEQADRLANAVRSRLLTPGGILASEYETGEQWDKPNGWAPLQWMAIQGFKMYGDDLLGDEIARSWLKTVNQFYLEQHKLIEKYHIADGVPREGGGGEYPLQDGFGWTNGVVRRLIGLYGEPLEHHHHHH | not soluble
MGSDKIHHHHHHMQIDSSILGALRCFEAAGRLLSFTKAAESLNLTQSAVSQQIRHLEDRLGYVLFVRQPRSLKLTPQGEVLFETTTRALHDIQQTIQRLGMPNAPLQVNCLPSFALQWLMPRLTDFHREQPDVSVRLKAEFQALDRQSMDTEDIDVAVRYDPVRYSRLHADVLLDEYLIPVATPEYLAEHRELAEGTSLDGVVLLHDASPWVGAAEFVEWRTWLEAFHPTWMAHLEGPQFNLSSLAISAALNHQGVAMGRTALVYDEIRSGRLVNVFRQHVRAPARYMLLSRNPDDRRVTIFSAWLKAECARFDAMRMETLSRDR | not soluble
MGSDKIHHHHHHMKIDDKTGLVLEGGGMRGVFTCGVLDYMMDKKVWFPYGVGVSAGACNGLSYMSRQRGRAKFSNIDLLEKYHYIGIKHLWRKHSILDQELLYEHFPKEILPYDYKTYAENPARFEMVTTNCITGRACYLEEKHDPRRIIAIAKASSSLPYVCPIAYVDGEPMLDGGIVDSIPVLRAIEQGFDKNVVVLTRNRGYRKKGKDMKIPHFIYKKYPRLRVVLSKRCRIYNEQLDLVEQLEDKGRIVVIRPEKPMEVDRIETDIKKLTDLYEEGYACAKKMFEEKRILQK | not soluble
MNGCKQSASKVFKLVGGFNKASSRCFSSEKLIPKDLKIVKNPTSEQIKQFQKLVGDFNDIKLLKETMKDNYQLYLLCHKDSTVLSGTQSITYKSLNRSIPDFQTFGLSYQPDNTYNLLPHLMHEMATDFKSVKMNSGGCVDSKYAAVWRKVLHTKVRGPTYYVSHYKPDEVFNPELEFDDVVVKKFSDVPVEHVVKYDNSIFPYERKEYILAKFKNGVGRVAYNKSGEVIGIGLVSTESSGNCEIGPIYCDNKNAAQAIFQSIIQDLPMKDLKDVLVRCSDKFEDSATWIRPFLRRSHEMTPFAHIKFNRVIPDGLNFSKVFVSSNPSNAPC | not soluble
MKIFFITSNPGKVREVANFLGTFGIEIVQLKHEYPEIQAEKLEDVVDFGISWLKGKVPQPFMIEDSGLFIESLKGFPGVYSSYVYRTIGLEGILKLMEGAEDRRAYFKSVIGFYIDGKAYKFSGVTWGRISNEKRGTHGFGYDPIFIPEGSEKTFAEMTIEEKNALSHRGKALKAFFEWLKVNLKY | soluble
HIKVGFSPEKLQPYTQLPSDFNEFWNKTKAEAARFPLTYTKEYVEKYSTDKIDCYLIRLQLNKQSQCIYGYLFYPKAEGKYPVVLCPPGAGIKTIKGPMRHKYYAEEGCIRFEIEIHGLNPELDEDTFGEISRAFSSRENGYLVNGLDSRENYYMKRVYLACVRSIDLLTSLPEWDGKNVIVQGGSQGGALALITAGLDKRVTACVANHPALSDMAGYKAGRAGGYPHLFKNTVDMDTPAKMKTLAYYDVVNFAKQITVPVYMTWGFNDNTCPPTTSYIVYNVLNCPKEALITPVNEHWTSEDTEYGHLLWIKKHLK | not soluble
MGSSHHHHHHGGTGENLYFQGGSGAFRGSSARLAATPGVGIAPETTPVKYVPEMLNIQNAKWWNGRGKPVYRSTYNEKSWLEKARWGAFTKGSRPVMRQRYSAAALKEALEMVPEGFETCDVPRPPQRIRAQSEGVVGRWYTNYWTLHSVRYQCQLAGVEWQFGERQRPRTNYDEPHMYTDFEETKAIRDYRSRWINVNRSLVGMSRRMKESEEEARYLHFKKVQDTFWSNRKVLVNRIKSMHNQGTLQSAKDLPIKTINIKAFLAE | not soluble
MSLTAAGRWRDVEMMAYKQDDAAPFRDVTRQLLFSDPRLACEWRYFEVAAGGYSTLEKHDHVHGVMIHRGKGQCLVGHHVSDVAVGDLVFIPPQTWHQFRANAGDVLGFLCLVNAERDREGHHHHHH | not soluble
MFSAVHPDSRRDCKKYRYSQTSHQNYWFLKYSEFNLLGKRKIKGNFLHLFHAEEKVLFQSVMLKDQTAKTEKRTQEITCQLSKLANFEENNRKKLQDTERENKKLRNLINSLELKLVSSPENLPLQILFFLISENDELLERVFHFHCATFTKLSDFQLLFFPTPMYVANEYAKSGRNLWNEAIIADAIPEVSGPEAARMKQITDSIKYKESGFLIDRRVNASALIIQSNCSIFNSNF | not soluble
MAHHHHHHMKGNKGANIAYPDKYHKVTEFFDREYGDLETCTKLNDCQKLLFYALRQQVEHGPCTSGAPFIWQVRERAKHDAWKQLGAMTKFEAMVHFVTHLEECIGGNVDWGEKLRDLNGMRDQQRVGVENGTGESNANEQTERGVSEAHWDADVQAHLQPSAENIEYLAREVMRLRGELQQVRPNRVVPTPIVVPPRKPIDYVSTKNIVPPARTLATVATRTALLNAQTTNNLVERQPQGWGEWFGLI | soluble
MRGSHHHHHHGMASNEFPVVLVINCGSSSIKFSVLDVATCDVLMAGIADGMNTENAFLSINGDKPINLAHSNYEDALKAIAFELEKRDLTDSVALIGHRIAHGGELFTQSVIITDEIIDNIRRVSPLAPLHNYANLSGIDAARHLFPAVRQVAVFDTSFHQTLAPEAYLYGLPWEYFSSLGVRRYGFHGTSHRYVSRRAYELLDLDEKDSGLIVAHLGNGASICAVRNGQSVDTSMGMTPLEGLMMGTRSGDVDFGAMAWIAKETGQTLSDLERVVNKESGLLGISGLSSDLRVLEKAWHEGHERARLAIKTFVHRIARHIAGHAASLHRLDGIIFTGGIGENSVLIRQLVIEHLGVLGLTLDVEMNKQPNSHGERIISANPSQVICAVIPTNEEKMIALDAIHLGNVKAPVEFA | soluble
MRNKNMSTIYQTSATASAGRNGVVSTEDKLLELNLSYPKEMGGSGTATNPEQLFAVGYAACFSNAILHVAREAKVALKEAPVTATVGIGPNGQGGFALSVALAAHIALEDEQARQLVTVAHQVCPYSNAVRGNIDVQVSVNGLAL | not soluble
MKAETTTGVEELLNELVGRAAGEVGLILFSLGIEGEFTDDQLSLELGIEINEIRKALFALYEIGLADYVRRRDDETGWMEYYWRINYDKALDVLKRELEKTAKKLREKIEAETSTIYYICPNMCVKVSYNDAMELNFTCPRCGAMLDYLDCSKAIEKIEEEVRRIEEILESLDKNSG | not soluble
MGSDKIHHHHHHMPAKIIDKIIEEIDKLPSPNVVVQRIIAVCSKPDASSTEVANTLMMDASLSARVLKLANSAYYGVPRKITTLSEAVMILGFKTVRNLALSVFTYDMVFKNSSSGIDREKLWEHFIASAIASETVAETMGYPLKEEIFIAGLLHDLGKVVYDLLFSDILETEAKIAQKTKKNLIDIEEELGIPPHSEVGAKLLRKWNFPDLLVLSAEFHHNVEGNPNELFVNQVSMVHIGDVIANLMMKGASLSWGDPKLSPFALNVLKVKPKTFLRILDKSKEKYNKAQEFLQID | not soluble
MGSDKIHHHHHHMNFIEQISENNQFPIIFVGSGITQRYFENAPTWEKLLKDIWLELFDEESYYAKAFELRERFENNDFDIYTNLASLLEKEVSKAFINGNIQVDNLDLKTAYELNISPFKQLVANRFSNLKIREEKIEEIKQFSQMLSKARIIITTNYDNFIEECLKTINVSVKINVGNKGLFLKSSDYGELYKIHGTVDDASTITITKEDYEKNVTKSALINAKILSNLVESPILFLGYSLTDENIRKLLTDFAENSPFDISESAQKIGVVEYLPDSESIETVVSSLPDLSVYYSCLKTDNFTNIYRLISKINQGFLPSEIAKYENVFRKIIEVKGESKDLKTVLTSYEDLANLTEDEIRSKNIVVAFGDERYIYKFPDFKEYVRSYFLDKETIPQEIVIRFIATQPVASHLPIKKYMFAMSEYISKDSNKYTENIKKRLSKEEELSLDDFTSSIGVPLLHSKTLERQTEIVGILEADVPDNVRYNFIATHIKNFPKEELFLLVEKIIDEGIFETSRRRFLKAFDLLHY | not soluble
PNFSGNWKIIRSENFEELLKVLGVNVMLRKIAVAAASKPAVEIKQEGDTFYIKVSTTVRTTEINFKVGEEFEEQTVDGRPCKSLVKWESENKMVCEQKLLKGEGPKTSWTLELTNDGELIDTMTADDVVCTKVFVRE | soluble
AEIVEGRDYTVLSAPQPTEGDSEHIEVIEFFWYGCPHCSDLHPHLSRWLENKPADVAFRFVPAILRNNWVPGAKTFYAMESLGLTQTLHDKVYHAIHREKTDLSKEATLFDWIGKQGVDRDKFIGAYNSFTVQNQANRSAQMIRQYKLTGVPALVVDGRYLTSGKAGGTPQDTISVLNQLIEK | not soluble
